Test results as given in patent publication US20230235080A1, “TROPHOBLAST CELL-SURFACE ANTIGEN-2 (TROP-2) ANTIBODIES” (Bionecure Therapeutics, Inc., priority 2020, published 2023).
Each block holds one molecule with its values, some of them ahead of it.

Assays:
[1] = biological target: T1, human Trop-2-ECD-6His fusion protein (human, UniProt P09758 27-274); assay: ELISA on immobilized Trop-2-ECD-6His; control, 1 to 1 ratio
T1 construct: Expressed in a human 293 cell line; also called huTrop-2; human Trop-2 antigen
T1 sequence: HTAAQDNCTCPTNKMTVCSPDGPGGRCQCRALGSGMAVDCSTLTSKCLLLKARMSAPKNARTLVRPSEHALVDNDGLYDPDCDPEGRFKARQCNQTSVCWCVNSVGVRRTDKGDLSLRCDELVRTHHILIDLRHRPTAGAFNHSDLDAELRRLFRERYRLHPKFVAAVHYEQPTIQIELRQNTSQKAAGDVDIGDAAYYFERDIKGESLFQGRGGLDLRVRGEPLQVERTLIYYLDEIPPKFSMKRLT

[2] = biological target: T1, human Trop-2-ECD-6His fusion protein; assay: ELISA on immobilized Trop-2-ECD-6His; control, 1 to 10 ratio
[3] = biological target: T2, human Trop-2-ECD-6His fusion protein (Homo sapiens, UniProt P09758); assay: Antigen binding assay (ELISA) on immobilized Trop-2-ECD-6His; settings: Table 3, ELISA absorbance at 405 nm
T2 construct: made in house; host or cells: human 293 cell line
T2 sequence (P09758 with tags, fused parts or gaps): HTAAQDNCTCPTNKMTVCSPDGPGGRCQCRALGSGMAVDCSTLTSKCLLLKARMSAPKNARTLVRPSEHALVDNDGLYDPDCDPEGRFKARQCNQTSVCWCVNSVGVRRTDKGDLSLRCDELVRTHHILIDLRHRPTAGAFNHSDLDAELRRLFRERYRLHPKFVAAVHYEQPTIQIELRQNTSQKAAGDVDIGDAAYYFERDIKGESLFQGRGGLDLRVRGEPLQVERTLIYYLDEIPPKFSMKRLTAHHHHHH
Method: Using the HCVR sequence and LCVR sequence of mAbs #118-2-5 and #125-1-5, two murine-human chimeric IgG1 (hereinafter “chimeric IgG1”) was prepared which comprised the heavy chain sequences set forth in SEQ ID NOs: 47 and 49, and the light chain sequences set forth in SEQ ID NOs: 48 and 50. Nucleic acids encoded by SEQ ID NO: 19, 20 and SEQ ID NO: 21, 22 were amplified and inserted into pTT5 to make an expression plasmid of the full-length IgG. The heavy chain and light chain expression plasmids were used to co-transfect 100 mL HEK293-6E cells. The recombinant IgG secreted into to media was purified using protein A affinity. The purified IgG migrated as ~150 kDa band in SDS-PAGE under non-reducing conditions, ~55 kDa and ~30 kDA bands under reducing condition. The purity of the chimeric IgG is >90%. The binding affinity between the chimeric IgGs and a human Trop-2-ECD-6His fusion protein (SEQ ID NO:2) was determined by ELISA. The Trop-2-ECD-6His fusion protein was immobilized on the surface of a microplate wells and incubated with the chimeric IgGs. A secondary enzyme-labeled goat-anti-mouse IgG-AP was then added. After washing, the activity of the microplate well-bound enzyme was measured by adding the substrate. Color development and absorbance at 405 nm were read.

[4] = system: Trop-2 positive breast cancer cell line MDA-MB-468; assay: Internalization assay by flow cytometry (Example 2 protocol); type: cell-based, human; settings: Table 4; chimeric IgGs; 2 hours at 37° C.; 100 × (MFI4°C - MFI37°C) / MFI4°C
Method: The chimeric IgG1 #118-2-5 and #125-1-5 were further evaluated by internalization assay using Trop-2 positive breast cancer cell line MDA-MB-468. MDA-MB-468 cells were seeded at 1×10^5 cell/well. Next, the chimeric or benchmark IgGs were added to cells in FACS buffer and incubated for 2 hours at 4° C. After incubation, the cells were washed to remove unbound antibody. The cells were then incubated at 37° C. After 2 hours, the cells were dissociated and stained with fluorescent-conjugated […] secondary antibodies for 30 minutes on ice in dark before being analyzed using Beckman flow cytometry system. The fluorescent intensity and cell binding percentage at each time point were analyzed by Beckman flow cytometric software. The amount of chimeric IgGs internalized into cells was determined using the following formula: % internalization rate = 100 × (MFI4°C - MFI37°C) / MFI4°C.

human Trop-2ECD-6His = biological target: T3, human Trop-2ECD-6His (Homo sapiens, UniProt P09758); assay: Cross-reactivity ELISA, human Trop-2; type: binding; settings: plate coated with 1 µg/mL antigen
T3 construct: made in house; host or cells: human 293 cell line
T3 sequence (P09758 with tags, fused parts or gaps): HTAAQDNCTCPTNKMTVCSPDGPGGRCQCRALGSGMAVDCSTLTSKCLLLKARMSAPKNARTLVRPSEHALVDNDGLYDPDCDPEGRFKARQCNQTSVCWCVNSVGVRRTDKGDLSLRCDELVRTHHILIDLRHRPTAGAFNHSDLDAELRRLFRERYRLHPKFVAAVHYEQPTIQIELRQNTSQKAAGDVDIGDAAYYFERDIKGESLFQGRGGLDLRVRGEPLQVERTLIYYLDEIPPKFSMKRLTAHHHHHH
Method: (§1) Cross-reactivity of chimeric IgG #118-2-5 and #125-1-5 to the Trop-2 antigens from different species was assessed by ELISA. In this experiment, a microtiter plate was coated overnight at 4° C. with 50 µL/well of 1 µg/mL human Trop-2ECD-6His, mouse Trop-2-His, cynomolgus Trop-2-His, human EPCAM-His, and a non-related protein. The plate was washed and blocked for 1 hr at 37° C., and then washed with wash buffer. Purified chimeric IgGs appropriately diluted in PBS were added to wells and incubated for 1 hr at 37° C. After washing, bound antibodies were detected using HRP-conjugated goat-anti-human IgG Ab. Color development and absorbance at OD450 nm were read. A non-specific mock mouse IgG and a non-specific mock human IgG were included as the negative controls, while anti-His antibody was used as a positive control.
(§2) The cross-reactivity of purified IgGs to the Trop-2 antigens from different species was tested by ELISA. In this experiment, a microtiter plate was coated overnight at 4° C. with 50 µL/well of 1 µg/mL human Trop-2ECD-6His, mouse Trop-2-His, cynomolgus Trop-2-His, human EPCAM-His, and a non-related protein. The plate was washed and blocked for 1 hr at 37° C., and then washed with wash buffer. […] After washing, bound antibodies were detected using HRP-conjugated goat-anti-human IgG antibody. Color development and absorbance at OD450 nm were read. […]

cynomolgus Trop-2-His = assay: Cross-reactivity ELISA, cynomolgus Trop-2; type: binding; settings: plate coated with 1 µg/mL antigen
Method: as §1, §2

mouse Trop-2-His [5] = biological target: T4, mouse Trop-2-His (Mus musculus, UniProt Q8BGV3); assay: Cross-reactivity ELISA, mouse Trop-2; type: binding; settings: plate coated with 1 µg/mL antigen
T4 sequence (Q8BGV3 25-317): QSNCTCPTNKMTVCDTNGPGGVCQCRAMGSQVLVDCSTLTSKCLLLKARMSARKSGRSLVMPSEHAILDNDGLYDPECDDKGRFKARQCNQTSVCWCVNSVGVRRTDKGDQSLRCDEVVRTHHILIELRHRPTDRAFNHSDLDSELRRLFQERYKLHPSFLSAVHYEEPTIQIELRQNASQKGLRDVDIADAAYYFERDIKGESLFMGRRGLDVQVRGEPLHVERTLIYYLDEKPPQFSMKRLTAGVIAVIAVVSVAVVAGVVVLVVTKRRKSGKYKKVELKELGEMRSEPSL
Method: as §1
(§3) The cross-reactivity of purified IgGs to the Trop-2 antigens from different species was tested by ELISA. In this experiment, a microtiter plate was coated overnight at 4° C. with 50 µL/well of 1 µg/mL human Trop-2ECD-6His, mouse Trop-2-His, cynomolgus Trop-2-His, human EPCAM-His, and a non-related protein. The plate was washed and blocked for 1 hr at 37° C., and then washed with wash buffer. Purified anti-Trop-2 antibodies appropriately diluted in PBS were added to wells and incubated for 1 hour at 37° C. After washing, bound antibodies were detected using HRP-conjugated goat-anti-human IgG antibody. Color development and absorbance at OD450 nm were read. A non-specific human IgG1 was included as a negative control, while hRS7 was used as a positive control.

human EPCAM-His [6] = biological target: T5, human EPCAM-His (Homo sapiens, UniProt P16422); assay: Cross-reactivity ELISA, human EPCAM; type: binding; settings: plate coated with 1 µg/mL antigen
T5 sequence (P16422 24-314): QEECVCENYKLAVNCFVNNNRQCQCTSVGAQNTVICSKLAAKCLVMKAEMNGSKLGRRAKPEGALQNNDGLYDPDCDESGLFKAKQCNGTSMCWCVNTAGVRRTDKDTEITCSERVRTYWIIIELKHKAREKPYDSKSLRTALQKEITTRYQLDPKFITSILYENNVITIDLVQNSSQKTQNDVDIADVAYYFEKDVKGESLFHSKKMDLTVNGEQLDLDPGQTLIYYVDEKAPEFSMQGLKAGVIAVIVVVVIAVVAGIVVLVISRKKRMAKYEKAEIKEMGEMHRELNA
Method: as §1, §3

non-related protein = assay: Cross-reactivity ELISA, non-related protein; type: binding; settings: plate coated with 1 µg/mL protein
Method: as §1, §3

mouse Trop-2-His [7] = biological target: T6, mouse Trop-2-His (mouse, UniProt Q8BGV3 25-270); assay: ELISA on coated antigen, one antibody dilution (concentration not given); on the sheet OD405, detected by GAM/H-AP
T6 sequence (looked up): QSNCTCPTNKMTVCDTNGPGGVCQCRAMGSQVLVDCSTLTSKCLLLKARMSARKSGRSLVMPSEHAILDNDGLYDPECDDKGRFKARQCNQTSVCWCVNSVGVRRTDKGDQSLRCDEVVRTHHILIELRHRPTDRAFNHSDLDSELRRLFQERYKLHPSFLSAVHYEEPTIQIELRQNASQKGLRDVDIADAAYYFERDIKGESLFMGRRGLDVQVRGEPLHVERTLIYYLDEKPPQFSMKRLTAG

human EPCAM-His [8] = biological target: T7, human EPCAM-His (human, UniProt P16422 24-265); assay: as above
T7 construct: also called hEPCAM
T7 sequence (looked up): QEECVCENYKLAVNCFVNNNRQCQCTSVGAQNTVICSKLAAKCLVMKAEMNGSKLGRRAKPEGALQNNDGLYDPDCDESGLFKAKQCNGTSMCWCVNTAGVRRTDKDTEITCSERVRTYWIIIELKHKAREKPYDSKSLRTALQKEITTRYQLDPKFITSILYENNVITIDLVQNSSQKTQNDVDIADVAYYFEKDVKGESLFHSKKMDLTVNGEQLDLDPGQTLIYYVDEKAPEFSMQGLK

OD (absorbance at 405 nm) [1]: 0.059 OD
OD (absorbance at 405 nm) [2]: 0.058 OD
Molecule: BSA (from UniProt P02769 25-607)

OD value, Conditioned Medium 1 to 1 ratio ([3]; 1 to 1 ratio): 1.339
OD value, Conditioned Medium 1 to 10 ratio ([3]; 1 to 10 ratio): 1.457
binding to human Trop-2 antigen (ELISA, OD450 nm) (human Trop-2ECD-6His): able to bind
binding to cynomolgus Trop-2 antigen (ELISA, OD450 nm) (cynomolgus Trop-2-His): able to bind
recognition of mouse Trop-2 (ELISA, OD450 nm) (mouse Trop-2-His [5]): some non-specific binding
recognition of mouse Trop-2 (ELISA, OD450 nm) (mouse Trop-2-His [5]; listed as benchmark IgG): did not recognize
recognition of hEPCAM (ELISA, OD450 nm) (human EPCAM-His [6]): some non-specific binding
recognition of hEPCAM (ELISA, OD450 nm) (human EPCAM-His [6]; listed as benchmark IgG): did not recognize
Molecule: hRS7: anti-Trop2 antibody used in sacituzumab govitecan (IMMU-132); used as a benchmark antibody [reference compound]
Internalization rate [4]: 17.62%
recognition of the non-related protein (ELISA, OD450 nm) (non-related protein): some non-specific binding
recognition of the non-related protein (ELISA, OD450 nm) (non-related protein; listed as benchmark IgG): did not recognize

binding result (mouse Trop-2-His [7]): no binding
binding result (human EPCAM-His [8]): no binding
B1: murine-human chimeric IgG1 #118-2-5 (antibody, V domains shown)
VH: QVQLKQSGPGLVAPSQSLSITCTVSGFSLTSYGVNWIRQPPGKGLEWLGVMWAGGSTNYNSALMSRLSISKDNSKSQVFLKMNSLQTDDTGMYYCARDENWDGAWFAYWGQGTLVTVSA
VL: DIQMTQSPSSLAVSAGEKVTMSCKSSQSLLNSGTRKNYLAWYQQKPGQSPKLLISWASSRESGVPDRFTGSGSGTDFTLTISSVQAEDLAVYYCKQSYNLFTFGGGTKLELKR
notes: Chimeric IgG1 expressed in HEK293-6E cells
